Test results reported in patent US20150368327A1 (YOKOHAMA CITY UNIVERSITY, published 2015).

Key:
[1] = target: T1, mouse Sema 3A protein (mouse, UniProt O08665 21-772, limits assumed); test: antigen solid phase ELISA: coated mouse Sema 3A (2.5 µg/mL), anti-mouse IgG2A-HRP, OD450
T1 construct: Produced from mouse Sema 3A protein expressing cells; also called Mouse Sema 3A antigen
T1 sequence (looked up): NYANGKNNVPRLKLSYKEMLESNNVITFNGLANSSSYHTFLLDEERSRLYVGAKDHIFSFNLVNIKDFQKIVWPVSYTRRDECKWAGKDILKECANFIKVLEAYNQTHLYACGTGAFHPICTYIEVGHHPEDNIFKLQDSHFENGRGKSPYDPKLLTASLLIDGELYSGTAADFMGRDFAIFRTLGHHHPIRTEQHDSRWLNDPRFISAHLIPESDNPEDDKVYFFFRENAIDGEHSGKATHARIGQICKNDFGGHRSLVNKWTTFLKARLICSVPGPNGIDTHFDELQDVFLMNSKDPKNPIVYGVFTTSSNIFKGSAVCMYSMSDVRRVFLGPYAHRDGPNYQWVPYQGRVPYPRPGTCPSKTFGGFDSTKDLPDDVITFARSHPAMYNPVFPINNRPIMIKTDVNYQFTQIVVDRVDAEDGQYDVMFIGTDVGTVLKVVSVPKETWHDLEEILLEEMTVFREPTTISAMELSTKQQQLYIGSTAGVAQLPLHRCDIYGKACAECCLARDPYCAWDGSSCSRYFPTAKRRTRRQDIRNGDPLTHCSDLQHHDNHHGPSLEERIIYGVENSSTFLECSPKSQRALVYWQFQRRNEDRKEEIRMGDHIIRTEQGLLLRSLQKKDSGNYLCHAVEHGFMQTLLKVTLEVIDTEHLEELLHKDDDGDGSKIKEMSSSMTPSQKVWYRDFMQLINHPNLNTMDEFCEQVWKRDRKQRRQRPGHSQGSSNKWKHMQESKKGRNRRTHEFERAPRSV
Description: The antigen specificity of the purified antibody was measured by ELISA with PBS buffer. 2.5 μg/mL of antigen was dispensed to a 96 well Maxi Sorp Plate (Nunc) and reacted overnight at 4° C. to coat the plate with an antigen (mouse Sema 3A protein). Ovalbumin, rabbit IgG and skim milk were immobilized in the plate as negative controls in similar manner in order to examine specificity of antibodies. The next day, the plate was washed three times with 200 μL/well of washing solution (PBS containing 0.05% Tween 20), to which was added 200 μL/well of blocking solution (PBS containing 0.5% skim milk) and the mixture was reacted for 30 minutes. The plate was washed three times with 200 μL/well of washing solution, to which was added 100 μL of culture supernatant containing antibody and the mixture was reacted for one hour. The plate was washed five times with 200 μL/well of washing solution, to which was added 100 μL/well of diluent in which anti-mouse IgG2A goat antibody labeled with horseradish peroxidase (HRP) (Bethyl Laboratories, Inc.) was diluted 2000 times with PBS buffer and the mixture was reacted for one hour. […] The absorbance was measured at 450 nm using μQuantBiomolecular Spectrometer (Bio Tek Instruments, Inc.) Results are shown in FIG. 2.

[2] = target: T2, human Sema 3A protein (human, UniProt Q14563 21-771, limits assumed); test: competitive ELISA on plate-coated human Sema 3A; competitor biotin-labelled avian-mouse chimeric antibody (clone No. 4-2) at 60 ng/mL
T2 construct: also called Human Sema 3A antigen; human-derived Sema 3A protein
T2 sequence (looked up): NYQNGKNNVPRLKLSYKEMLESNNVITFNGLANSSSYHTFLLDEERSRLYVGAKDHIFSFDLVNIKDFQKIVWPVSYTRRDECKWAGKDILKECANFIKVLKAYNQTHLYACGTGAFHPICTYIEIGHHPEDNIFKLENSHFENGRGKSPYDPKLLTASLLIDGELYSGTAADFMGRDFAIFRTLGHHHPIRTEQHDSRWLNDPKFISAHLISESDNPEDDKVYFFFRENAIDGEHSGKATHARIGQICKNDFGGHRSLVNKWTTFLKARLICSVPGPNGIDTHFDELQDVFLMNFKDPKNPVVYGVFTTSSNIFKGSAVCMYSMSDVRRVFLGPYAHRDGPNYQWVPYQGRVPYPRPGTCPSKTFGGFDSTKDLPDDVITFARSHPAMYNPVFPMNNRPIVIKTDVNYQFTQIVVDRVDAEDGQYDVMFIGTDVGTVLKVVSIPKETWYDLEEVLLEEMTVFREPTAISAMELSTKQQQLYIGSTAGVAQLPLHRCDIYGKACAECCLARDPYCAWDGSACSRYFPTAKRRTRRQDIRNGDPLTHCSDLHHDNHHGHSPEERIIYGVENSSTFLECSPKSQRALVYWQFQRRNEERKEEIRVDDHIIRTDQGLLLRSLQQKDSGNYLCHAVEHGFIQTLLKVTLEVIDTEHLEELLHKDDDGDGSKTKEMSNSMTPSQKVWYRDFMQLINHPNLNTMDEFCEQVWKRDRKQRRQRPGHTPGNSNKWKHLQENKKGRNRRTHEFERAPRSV
Description: The obtained clone No. 4-2-derived avian-mouse chimeric antibody in Example 1, the obtained humanized antibodies in Example 2 (Humanized-1 and Humanized-2) and avian-human chimeric antibody were subjected to competitive ELISA to evaluate affinity to the antigen. CL18M (+) avian-mouse chimeric antibody, which served as a negative control, was also measured for affinity to the antigen. Particular measurement conditions were as follows.
Firstly, 2.5 μg/mL of antigen (mouse and human Sema 3A protein) was dispensed into a 384 Well MaxiSorp Plate (Nunc) and reacted overnight at 4° C. in order to coat the plate with the antigen. The next day, the plate was washed three times with 50 μL/well of washing solution (PBS containing 0.05% Tween 20), to which was added 25 μL/well of blocking solution (PBS containing 1% bovine serum albumin) and the mixture was reacted for 30 minutes. Each of humanized antibodies (Humanized-1 and Humanized-2), avian-human chimeric antibody and avian-mouse chimeric antibody was subjected to serial doubling dilution, to which was mixed anti-Sema 3A avian-mouse chimeric antibody labeled with biotin to the final concentration of 60 ng/mL, and the mixture was reacted with the antigen solid phase plate which was washed three times with 50 μL/well of washing solution for one hour. The plate was washed five times with 50 μL/well of washing solution, to which was added 20 μL/well of diluent in which streptavidin labeled with horseradish peroxidase (HRP) (Thermo Fisher Scientific K.K.) was diluted 10000 times with PBS buffer and the mixture was reacted for 30 minutes. The plate was washed five times with 50 μL/well of washing solution, to which was added 20 μL/well of TMB+(Dako) and the mixture was chromogenically reacted for 20 minutes. Subsequently, to the each well was added 20 μL, of 1M sulfuric acid to quench the reaction. The absorbance was measured at 450 nm using Infinite M1000 (Tecan Trading AG).

- EC50 (read off the curve) [1]: ~0.01 µg/mL
- IC50 [2]: 0.074 µg/mL
B1: Anti-Sema 3A avian-mouse chimeric antibody (clone No. 4-2-derived) (antibody, mouse IgG2a)
heavy: AVTLDESGGGLQTPGGALSLVCKASGFTFSSYPMGWVRQAPGKGLEWVAGIDDDGDSDTRYAPAVKGRATISRDNGQSTVRLQLNNLRAEDTGTYYCAKHTGIGANSAGSIDAWGHGTEVIVSSAKTTAPSVYPLAPVCGDTTGSSVTLGCLVKGYFPEPVTLTWNSGSLSSGVHTFPAVLQSDLYTLSSSVTVTSSTWPSQSITCNVAHPASSTKVDKKIEPRGPTIKPCPPCKCPAPNLLGGPSVFIFPPKIKDVLMISLSPIVTCVVVDVSEDDPDVQISWFVNNVEVHTAQTQTHREDYNSTLRVVSALPIQHQDWMSGKEFKCKVNNKDLPAPIERTISKPKGSVRAPQVYVLPPPEEEMTKKQVTLTCMVTDFMPEDIYVEWTNNGKTELNYKNTEPVLDSDGSYFMYSKLRVEKKNWVERNSYSCSVVHEGLHNHHTTKSFSRTPGK
light: ALTQPASVSANLGGTVKITCSGGGSYTGSYYYGWYQQKSPGSALVTMIYYNNKRPSDIPSRFSGSLSGSTNTLTITGVRADDEAVYFCGSADNSGDAFGAGTTLTVLGQPKSSPSVTLFPPSSEELETNKATLVCTITDFYPGVVTVDWKVDGTPVTQGMETTQPSKQSNNKYMASSYLTLTARAWERHSSYSCQVTHEGHTVEKSLSRADCS
notes: Avian variable regions of clone No. 4-2 with mouse IgG2a heavy and mouse lambda light constant regions; also called anti-Sema 3A avian-mouse chimeric antibody (IgG)
